From patent publication US9187525B2, “Methods of treating ophthalmic diseases using NPR-B agonists” (Shire Orphan Therapies GmbH, dated 2015)
Numbered stars: 1 amine (or outer) side, 2 acyl side, 3 side chain; on linkers, the order of the positions; unused ones are H or OH. Square brackets hold non-standard residues; d marks the D form. Primed or numbered codes have the meaning given here. Ends that are not written are not given here. * marks the point of attachment. 2857‑Ac = 2-((2S,3R,4R,5R)-2,3,4,5,6-pentahydroxyhexylamino)acetic acid, O=C(CN(C[C@H](O)[C@@H](O)[C@H](O)[C@H](O)CO)[*:1])[*:2]; Sni = (S)-nipecotic acid, O=C([C@H]1CCCN([*:1])C1)[*:2]; pT = C[C@@H](OP(=O)(O)O)[C@H](N)C(=O)O; Cya = N[C@@H](CS(=O)(=O)O)C(=O)O; Hyp = O=C(O)[C@@H]1C[C@@H](O)CN1; pS = N[C@@H](COP(=O)(O)O)C(=O)O; Aoc(2) = CCCCCC[C@H](N)C(=O)O; NMeL = CN[C@@H](CC(C)C)C(=O)O; Hyp(2581) = not defined here; orn(Me2) = not defined here; NHexGly = CCCCCCNCC(=O)O; Octanoyl = CCCCCCCC(=O)*; 2137 = not defined here; 3816 = not defined here; dHgl = not defined here; Che = not defined here; leu = not defined here; Occ = octanoic acid; Dha = C=C(N)C(=O)O

T1: natriuretic peptide receptor-B (human)
T1 chain: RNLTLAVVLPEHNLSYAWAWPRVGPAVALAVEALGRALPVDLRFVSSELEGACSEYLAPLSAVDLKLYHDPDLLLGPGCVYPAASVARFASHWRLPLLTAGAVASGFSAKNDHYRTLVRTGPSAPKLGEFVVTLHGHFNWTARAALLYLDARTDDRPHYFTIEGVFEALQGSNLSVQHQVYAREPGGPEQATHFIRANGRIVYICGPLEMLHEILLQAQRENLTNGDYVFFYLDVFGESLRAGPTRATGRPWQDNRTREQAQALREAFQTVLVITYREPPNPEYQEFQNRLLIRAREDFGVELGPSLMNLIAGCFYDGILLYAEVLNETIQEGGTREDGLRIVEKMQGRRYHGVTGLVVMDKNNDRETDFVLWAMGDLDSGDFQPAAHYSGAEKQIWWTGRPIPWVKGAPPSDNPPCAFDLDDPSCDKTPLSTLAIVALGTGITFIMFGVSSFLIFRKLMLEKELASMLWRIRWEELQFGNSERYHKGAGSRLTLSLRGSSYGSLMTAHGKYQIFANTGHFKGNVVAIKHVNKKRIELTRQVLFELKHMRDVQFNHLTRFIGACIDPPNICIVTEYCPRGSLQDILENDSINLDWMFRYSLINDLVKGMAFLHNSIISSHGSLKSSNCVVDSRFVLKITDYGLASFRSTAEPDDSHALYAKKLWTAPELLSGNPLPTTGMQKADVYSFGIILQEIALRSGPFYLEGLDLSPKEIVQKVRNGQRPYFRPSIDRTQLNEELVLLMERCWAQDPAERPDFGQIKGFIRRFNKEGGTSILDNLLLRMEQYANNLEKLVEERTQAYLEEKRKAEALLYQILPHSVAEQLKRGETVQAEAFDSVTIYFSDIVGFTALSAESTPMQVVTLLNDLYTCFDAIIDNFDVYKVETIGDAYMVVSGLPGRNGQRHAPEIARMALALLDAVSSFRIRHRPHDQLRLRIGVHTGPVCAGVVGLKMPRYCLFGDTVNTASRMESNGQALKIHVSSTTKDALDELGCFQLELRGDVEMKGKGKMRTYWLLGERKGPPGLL


Target: T1, natriuretic peptide receptor-B
Test: cell-based or functional assay

EC50 group, cGMP in GTM-3 cells | Binder
≤ 15 µM | Octanoyl-[Sni]FLL[Hyp][NMeL][pS]R[Che] (not fully specified (some residues); printed as Occ-Sni-Phe-leu-Leu-Hyp-Nml-Pse-Arg-Che; reading uncertain) [JAL-1917]
≤ 5 µM | [Occ][Sni]F[orn(Me2)]L[Hyp][NMeL][pT]R[Che] (reading uncertain; also: printed as Occ-Sni-Phe-orn(Me2)-Leu-Hyp-Nml-Pth-Arg-Che) [JAL-1918]
≤ 15 µM | Octanoyl-[Sni]FLL[Hyp][NMeL][pS]RI-NH2 (not fully specified (some residues); printed as Occ-Sni-Phe-leu-Leu-Hyp-Nml-Pse-Arg-Ile-NH2) [JAL-1912]
≤ 15 µM | [Occ][Sni]F[orn(Me2)]L[Hyp][NMeL]SRI-NH2 (reading uncertain; also: printed as Occ-Sni-Phe-orn(Me2)-Leu-Hyp-Nml-Ser-Arg-Ile-NH2) [JAL-1921]
≤ 15 µM | Octanoyl-[dA][dA]FGLKLDR[3816] (reading uncertain; also: printed as Occ-ala-ala-Phe-Gly-Leu-Lys-Leu-Asp-Arg-3816) [JAL-0749]
≤ 5 µM | [Occ][Sni]F[orn(Me2)]L[Hyp][NMeL]TRI-NH2 (reading uncertain; also: printed as Occ-Sni-Phe-orn(Me2)-Leu-Hyp-Nml-Thr-Arg-Ile-NH2) [JAL-1924]
≤ 5 µM | [Occ][Sni]F[leu]L[Hyp][NMeL]DRI-OH (reading uncertain; also: printed as Occ-Sni-Phe-leu-Leu-Hyp-Nml-Asp-Arg-Ile-OH) [JAL-1930]
≤ 5 µM | [Occ][Sni]F[orn(Me2)]L[Hyp][NMeL]DRI-OH (reading uncertain; also: printed as Occ-Sni-Phe-orn(Me2)-Leu-Hyp-Nml-Asp-Arg-Ile-OH) [JAL-1931]
≤ 5 µM | [Occ][Sni]F[leu]LX[NMeL]DRI-NH2 (not fully specified (residue 6); printed as Occ-Sni-Phe-leu-Leu-Hyp(Asp(-))-Nml-Asp-Arg-Ile-NH2) [JAL-1928]
≤ 1 µM | H-KP[Aoc(2)][Sni]FLL[Hyp][NMeL]DRI-NH2 (not fully specified (residue 6); printed as H-Lys-Pro-Hgl-Sni-Phe-leu-Leu-Hyp-Nml-Asp-Arg-Ile-NH2) [JAL-1900]
≤ 5 µM | [Occ][Sni]F[orn(Me2)]L[Hyp][NMeL][Cya]RI-NH2 (reading uncertain; also: printed as Occ-Sni-Phe-orn(Me2)-Leu-Hyp-Nml-Cya-Arg-Ile-NH2) [JAL-1923]
≤ 15 µM | [Occ][Sni]F[orn(Me2)]L[Hyp][NMeL][pT]RI-NH2 (reading uncertain; also: printed as Occ-Sni-Phe-orn(Me2)-Leu-Hyp-Nml-Pth-Arg-Ile-NH2) [JAL-1913]
≤ 15 µM | Octanoyl-[dA][dA]FGLKLDR[2137] (reading uncertain; also: printed as Occ-ala-ala-Phe-Gly-Leu-Lys-Leu-Asp-Arg-2137) [JAL-0748]
≤ 15 µM | [Occ][Sni]F[orn(Me2)]L[Hyp][NMeL][pS]R[Che] (reading uncertain; also: printed as Occ-Sni-Phe-orn(Me2)-Leu-Hyp-Nml-Pse-Arg-Che) [JAL-1916]
≤ 5 µM | [Occ][Sni]F[Dha]L[Hyp][NMeL]DRI-NH2 [JAL-1915_2]
≤ 5 µM | H-K[dHgl][Sni]FLL[Hyp][NMeL]DRI-NH2 (not fully specified (residue 5); printed as H-Lys-hgl-Sni-Phe-leu-Leu-Hyp-Nml-Asp-Arg-Ile-NH2; reading uncertain) [JAL-1899]
≤ 5 µM | [NHexGly][Sni]FLL[Hyp][NMeL]DRI-NH2 (not fully specified (residue 4); printed as (1625-Ac)-Sni-Phe-leu-Leu-Hyp-Nml-Asp-Arg-Ile-NH2) [JAL-1907]
≤ 5 µM | [Occ][Sni]F[leu]L[Hyp][NMeL][pT]R[Che] (reading uncertain; also: printed as Occ-Sni-Phe-leu-Leu-Hyp-Nml-Pth-Arg-Che) [JAL-1919]
≤ 5 µM | [Occ][Sni]F[leu]L[Hyp][NMeL]SRI-NH2 (reading uncertain; also: printed as Occ-Sni-Phe-leu-Leu-Hyp-Nml-Ser-Arg-Ile-NH2) [JAL-1920]
≤ 5 µM | [2857‑Ac][Aoc(2)][Sni]FLL[Hyp][NMeL]DRI-NH2 (not fully specified (residue 5); printed as (2857-Ac)-Hgl-Sni-Phe-leu-Leu-Hyp-Nml-Asp-Arg-Ile-NH2) [JAL-1901]
≤ 1 µM | [Occ][Sni]F[leu]L[Hyp][NMeL]TRI-NH2 (reading uncertain; also: printed as Occ-Sni-Phe-leu-Leu-Hyp-Nml-Thr-Arg-Ile-NH2) [JAL-1932]
≤ 5 µM | [Occ][Sni]F[leu]L[Hyp][NMeL][Cya]RI-NH2 (reading uncertain; also: printed as Occ-Sni-Phe-leu-Leu-Hyp-Nml-Cya-Arg-Ile-NH2) [JAL-1922]
≤ 5 µM | H-K[Aoc(2)][Sni]FLL[Hyp][NMeL]DRI-NH2 (not fully specified (residue 5); printed as H-Lys-Hgl-Sni-Phe-leu-Leu-Hyp-Nml-Asp-Arg-Ile-NH2) [JAL-1898]
≤ 5 µM | [Occ][Sni]F[leu]L[Hyp(2581)][NMeL]DRI-NH2 (reading uncertain; also: printed as Occ-Sni-Phe-leu-Leu-Hyp(2581)-Nml-Asp-Arg-Ile-NH2) [JAL-1929]
